Assay results from patent publication US20170335007A1 (Xencor, published 2017).
Residue numbers refer to the chain shown, from its start.

Legend:
[1] = biological target: T1, human CD39 expressed on cells (human, UniProt P49961 1-510); test: flow cytometry on JVM-13 cells (endogenous human CD39)
T1 construct: also called ENTPD1; CD39 on JVM-13, ARH-77, IM-9, HUVEC cells and on CD39-transduced mouse sarcoma cells
T1 sequence: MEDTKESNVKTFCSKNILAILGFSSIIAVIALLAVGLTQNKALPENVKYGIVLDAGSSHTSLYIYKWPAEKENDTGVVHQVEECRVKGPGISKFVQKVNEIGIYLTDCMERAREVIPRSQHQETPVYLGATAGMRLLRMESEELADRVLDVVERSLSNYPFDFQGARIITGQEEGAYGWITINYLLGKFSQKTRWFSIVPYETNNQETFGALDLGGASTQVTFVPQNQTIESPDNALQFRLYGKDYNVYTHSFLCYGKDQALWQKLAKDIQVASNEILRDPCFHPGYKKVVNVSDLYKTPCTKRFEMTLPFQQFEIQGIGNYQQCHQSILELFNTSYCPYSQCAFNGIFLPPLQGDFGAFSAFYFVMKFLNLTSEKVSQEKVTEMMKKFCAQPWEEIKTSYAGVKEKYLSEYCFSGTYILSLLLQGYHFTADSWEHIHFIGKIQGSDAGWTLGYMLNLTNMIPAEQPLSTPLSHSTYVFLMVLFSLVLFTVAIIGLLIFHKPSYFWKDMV
Description: Binding of antibody was also assessed in a cell line that expresses endogenous human CD39 (e.g. the B-prolymphocytic leukemia cell line JVM-13). Thirty-five anti-CD39 antibodies as described in Example 2 were tested for their binding to JVM-13 cells. […] Median fluorescence intensities for each primary antibody concentration were used to derive a flow EC50/Kd using the one site—specific binding with Hill slope model in Prism (GraphPad Prism Software). Results are shown as Flow EC50 in Table 8.

[2] = biological target: T1, human CD39 expressed on cells; test: cell-based or functional assay
[3] = biological target: T1, human CD39 expressed on cells; test: cell-based or functional assay; remark: listed apart in the source
[4] = biological target: T2, recombinant human CD39 (R&D Systems) (human, UniProt P49961 38-478); test: SPR (ProteOn XPR36); antibody captured by anti-mouse antibody, CD39 in solution, 1:1 fit; ProteOn XPR36 SPR, Table 9
T2 construct: bought; also called CD39 antigen (R&D Systems); ENTPD1
T2 sequence: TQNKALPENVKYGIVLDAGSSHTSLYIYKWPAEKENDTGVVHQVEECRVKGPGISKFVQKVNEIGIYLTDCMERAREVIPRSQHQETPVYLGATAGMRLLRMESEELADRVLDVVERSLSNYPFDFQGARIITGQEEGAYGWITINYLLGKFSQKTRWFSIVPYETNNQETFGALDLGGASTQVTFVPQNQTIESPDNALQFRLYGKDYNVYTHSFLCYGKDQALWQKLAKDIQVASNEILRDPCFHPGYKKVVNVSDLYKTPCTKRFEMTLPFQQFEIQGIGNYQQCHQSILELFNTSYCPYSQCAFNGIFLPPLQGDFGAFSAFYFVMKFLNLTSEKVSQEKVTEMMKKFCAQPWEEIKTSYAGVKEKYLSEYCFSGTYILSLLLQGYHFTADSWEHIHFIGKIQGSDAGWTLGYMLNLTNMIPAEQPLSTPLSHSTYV
Description: (§1) Affinity measurements of four exemplary purified anti-CD39 antibodies (5-13A, 5-71A, 5-165C and 9-31A) were also carried on the ProteOn XPR36 (BioRad) using a GLM sensor chip. The running buffer contained 10 mM HEPES, 150 mM NaCl, 0.005% Tween-20 at pH 7.4. All data were collected at 25 degrees C. Anti-mouse capturing antibody was amine coupled at four densities on flow cells using standard s—NHS/EDC activation. A dilution series of […], 16.6, 5.5 and 1.85 nM CD39 antigen (R&D Systems) was tested for binding to the anti-CD39 antibody surfaces. The data were processed by subtracting the response from the inter-reference surfaces as well as the buffer blank injection. The processed response data from four density surfaces were globally fit to a simple 1:1 interaction model using Scrubber 2 (Biologic Software Pty Ltd).

[5] = biological target: T1, human CD39 expressed on cells; test: cell-based or functional assay; remark: listed apart in the source
[6] = biological target: T2, recombinant human CD39 (R&D Systems); test: BLI (Octet QK384); antibody on anti-mouse IgG Fc sensor, recombinant human CD39 in solution
Description: Additional binding assays were conducted. Affinity measurements of thirty-five purified anti-CD39 antibodies as described in Example 2 were carried out on the OctetQK384 sytem (ForteBio). After coating anti-mouse IgG Fc sensors with a purified anti-CD39 antibody, association and dissociation of recombinant human CD39 (R&D Systems) was monitored. Affinity (KD) and kinetic constants (ka and kd) were derived using ForteBio's software.

[7] = biological target: T2, recombinant human CD39 (R&D Systems); test: SPR (ProteOn XPR36); antibody captured by anti-mouse antibody, CD39 in solution, 1:1 fit
Description: as §1

B1: anti-CD39 monoclonal antibody 5-165C (antibody, V domains shown)
VH: EVQLVESGGDLVKPGGSLKLSCAAFGFTFSRYGMSWVRQTPDKRLEWVATITSGGIYTYYPDSVKGRFTISRDNAKNTLYLQMSSLKSEETAMYYCARHGQFGDYYGMDYWGQGTSVTVSS
VL: DVVMTQTPLSLPVSLGDQASISCRSSQSLLHSNGNTYLHWYLQKPGQSPKLLIYKVSNRFSGVPDRFSGSGSGTDFTLKISRVEAEDLGVYFCSQSTHVPYTFGGGTKLEIK
notes: purified mouse hybridoma antibody, IgG2a isotype; also called R21-5-165C; R29-5-165C
With B1 the EC50 [1] was 110 pM, the “% Inhibition of ATPase Activity in IM-9 cells (antibody at 1200 ng/mL)” value [2] was -0.1% and the “% Inhibition of ATPase Activity in HUVEC cells (antibody at 900 ng/mL)” value (“% Inhibition … (antibody at 900 ng/mL)” for short) [3] was -9.8%. The Kd [4] was 1250 pM, the koff [4] was 0.000109 s⁻¹ and the kon [4] was 87500 M⁻¹ s⁻¹. The “% Inhibition of ATPase Activity in ARH-77 cells (antibody at 1200 ng/mL)” value [5] was -2.5%, the Kd [6] was 2530 pM and the koff [6] was 0.000196 s⁻¹. The kon [6] was 77400 M⁻¹ s⁻¹.

B2: anti-CD39 monoclonal antibody 5-71A (antibody, V domains shown)
VH: DVQLVESGGGLVQPGGSRKLSCAASGFTFSSFGMHWVRQAPEKGLELVAYISSGSTIRYYSDTVKGRFTISRDNPKNTLFLQMTSLRSEDTAMYYCARFLYEGFRYGMDYWGQGTSVTVSS
VL: B1 VL with V3L, L29I, L30V, H39E, V90I, F92Y, S94F, S96G, T97S, Y101N
notes: purified mouse hybridoma antibody, IgG2a isotype; also called R21-5-71A; R29-5-71A
In the case of B2, the EC50 [1] is reported as 90 pM, the Kd [7] is reported as 90 pM and the koff [7] is reported as 1.4e-05 s⁻¹. The kon [7] was 153000 M⁻¹ s⁻¹, the “% Inhibition of ATPase Activity in ARH-77 cells (antibody at 1200 ng/mL)” value [5] was 3.6% and the Kd [6] was 730 pM. It also gave a koff [6] of 5.22e-05 s⁻¹ and a kon [6] of 71100 M⁻¹ s⁻¹.

B3: anti-CD39 monoclonal antibody 9-8B (antibody, V domains shown)
VH: QIQLVQSGPELKKPGETVKISCKASGYTFTHYGMNWVKQAPGKGLKWMGWINTYTGELTYADDFKGRFAFSLETSASTAYLQINNLKNEDTATYFCARRAYYRYDYVMDYWGQGTSVTVSS
VL: DIVMTQSQKFMSTSVGDRVSVTCKASHNVGTNVAWYQQKPGQSPKALIYSASYRYSGVPGRFTGSGSGTDFTLTISNVQSEDLAEYFCHQYNNYPYTFGGGTKLEIK
notes: purified mouse hybridoma antibody, IgG2a isotype; also called R21-9-8B; R29-9-8B
B3 was tested, and the EC50 [1] was 260 pM, the “% Inhibition of ATPase Activity in IM-9 cells (antibody at 1200 ng/mL)” value [2] was 29.8% and the “% Inhibition … (antibody at 900 ng/mL)” value [3] was 33.7%. The “% Inhibition of ATPase Activity in ARH-77 cells (antibody at 1200 ng/mL)” value [5] was 36.5%, the Kd [6] was 3100 pM and the koff [6] was 0.000848 s⁻¹. It also gave a kon [6] of 273000 M⁻¹ s⁻¹.

B4: anti-CD39 monoclonal antibody 5-13A (antibody, V domains shown)
VH: QVQLQQSGPELVKPGASVRISCKASGYTFTGYYVHWVKQRPGQGLEWIGWIYPGNVNTKYNEKFKAKATLTADKSSSTGYMQLSRLTSEDSAVYFCARSPYYGTTYYYTMDYWGQGTSVTVSS
VL: EIVLTQSPAFMAASPGEKVTITCSVSLIISSRNLHWYQQKSETSPKPWIYGTSNLASGVPVRFSGSGSGTSYSLTISSMEAEDAATYYCQQWSDYPLTFGSGTKLEIK
notes: purified mouse hybridoma antibody, IgG2a isotype; also called R21-5-13A; R29-5-13A
In the case of B4, the EC50 [1] is reported as 180 pM, the “% Inhibition of ATPase Activity in IM-9 cells (antibody at 1200 ng/mL)” value [2] is reported as 0.8% and the “% Inhibition … (antibody at 900 ng/mL)” value [3] is reported as -4.4%. For the same binder, the Kd [7] was 1160 pM, the koff [7] was 0.000221 s⁻¹ and the kon [7] was 191000 M⁻¹ s⁻¹. For the same binder, the “% Inhibition of ATPase Activity in ARH-77 cells (antibody at 1200 ng/mL)” value [5] was -6.2%, the Kd [6] was 1520 pM and the koff [6] was 0.000159 s⁻¹. For the same binder, the kon [6] was 105000 M⁻¹ s⁻¹.
